Each block holds one binder with its values, some of them ahead of it. Ends that are not written are not given here.
Legend:
[1] = target: T1, calcitonin receptor (receptor binding assay); experiment: calcitonin receptor binding assay, method not described
T1 construct: also called rCalcitonin RBA; CT

[2] = target: T2, adrenomedullin receptor (receptor binding assay); experiment: adrenomedullin receptor binding assay, method not described
T2 chain 1: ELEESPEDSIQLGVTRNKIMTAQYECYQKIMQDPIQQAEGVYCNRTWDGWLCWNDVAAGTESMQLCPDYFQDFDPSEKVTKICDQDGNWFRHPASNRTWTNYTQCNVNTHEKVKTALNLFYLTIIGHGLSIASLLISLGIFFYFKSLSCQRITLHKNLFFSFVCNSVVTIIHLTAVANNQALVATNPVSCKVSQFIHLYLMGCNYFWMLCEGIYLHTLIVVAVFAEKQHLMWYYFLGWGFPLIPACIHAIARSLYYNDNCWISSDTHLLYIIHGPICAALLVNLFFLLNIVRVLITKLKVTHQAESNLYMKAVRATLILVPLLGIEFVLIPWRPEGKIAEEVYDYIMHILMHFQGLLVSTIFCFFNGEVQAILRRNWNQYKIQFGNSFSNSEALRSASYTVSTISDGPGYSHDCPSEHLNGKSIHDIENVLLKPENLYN
T2 chain 2: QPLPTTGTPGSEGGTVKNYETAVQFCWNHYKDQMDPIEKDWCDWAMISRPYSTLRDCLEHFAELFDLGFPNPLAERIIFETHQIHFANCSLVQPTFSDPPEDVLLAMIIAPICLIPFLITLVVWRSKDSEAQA

[3] = target: T3, CGRP receptor (membranes prepared from SK-N-MC cells) (UniProt Q16602 23-461; O60894 27-148, limits assumed); experiment: radioligand displacement, 125I-hCGRP, SK-N-MC cell membranes
T3 construct: whole, on cells; Endogenous receptor in SK-N-MC cell membranes; also called CGRP receptors; CGRP RBA
T3 sequence (O60894 27-148 limits assumed, chain 2 of 2, one chain of several): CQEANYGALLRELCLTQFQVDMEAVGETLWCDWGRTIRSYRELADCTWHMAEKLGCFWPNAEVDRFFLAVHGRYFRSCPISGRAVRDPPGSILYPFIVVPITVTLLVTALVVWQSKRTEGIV
Experimental: (§1) Solutions were incubated for 60 minutes at 2 C. […] Filters were washed immediately before filtration with 5 ml cold PBS, and immediately after filtration with 15 ml cold PBS. […] Competition curves were generated by measuring binding in the presence of 10⁻¹² to 10⁻⁶ M unlabeled test compound and were analyzed by nonlinear regression using a 4-parameter logistic equation (INPLOT program; […] Software, San Diego, Calif.).

[4] = target: amylin receptor (nucleus accumbens membranes prepared from rat brain) (rat, UniProt P32214 25-516); experiment: radioligand displacement, 125I-rat amylin, rat nucleus accumbens membranes
Sequence of amylin receptor (nucleus accumbens membranes prepared from rat brain) (P32214 25-516): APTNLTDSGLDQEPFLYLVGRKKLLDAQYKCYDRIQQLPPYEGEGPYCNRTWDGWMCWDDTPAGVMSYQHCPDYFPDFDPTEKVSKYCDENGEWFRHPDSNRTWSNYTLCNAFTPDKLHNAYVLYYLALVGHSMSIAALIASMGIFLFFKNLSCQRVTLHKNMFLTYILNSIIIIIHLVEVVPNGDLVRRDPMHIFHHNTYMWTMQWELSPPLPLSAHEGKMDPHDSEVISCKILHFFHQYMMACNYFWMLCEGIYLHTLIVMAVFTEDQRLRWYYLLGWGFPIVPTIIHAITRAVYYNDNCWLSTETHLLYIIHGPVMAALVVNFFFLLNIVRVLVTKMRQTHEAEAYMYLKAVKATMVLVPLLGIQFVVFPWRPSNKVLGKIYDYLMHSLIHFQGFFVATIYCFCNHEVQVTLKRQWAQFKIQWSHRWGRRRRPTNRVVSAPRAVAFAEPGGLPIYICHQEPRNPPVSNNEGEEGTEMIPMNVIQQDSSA
Experimental: Male Sprague-Dawley® rats (200-250) grams were sacrificed by decapitation. Brains were removed and place in cold phosphate-buffered saline (PBS). From the ventral surface, cuts were made rostral to the hypothalamus, bounded laterally by the olfactory tracts and extending at a 45° angle medially from these tracts. This basal forebrain tissue, containing the nucleus accumbens and surrounding regions, was weighed and homogenized in ice-cold 20 mM HEPES buffer (20 mM HEPES acid, pH adjusted to 7.4 with NaOH at 23° C.). Membranes were washed three times in fresh buffer by centrifugation for 15 minutes at 48,000×g. The final membrane pellet was resuspended in 20 mM HEPES buffer containing 0.2 mM phenylmethylsulfonyl fluoride (PMSF).
as §1

[5] = target: calcitonin receptor of CHO cells; experiment: cell-based or functional assay
[6] = target: T1, calcitonin receptor (receptor binding …); experiment: rCalcitonin RBA, method not described

IC50 [1]: 9 nM | IC50 [2]: 1000 nM | IC50 [3]: 111 nM | IC50 [4]: 7.5 nM
Binder: VGCGNLSTCQVQNLSHRLWQLRQDSAPVDPSSPHSY-NH2 (ends and bridges not checked) [AFP-6 analog SEQ ID NO: 29]

IC50 [1]: 247 nM | IC50 [2]: 1000 nM | IC50 [3]: 12.7 nM | IC50 [4]: 29 nM
Binder: CVLGTCQVQNLSHRLWQLRQESAPVEPSSPHSY-NH2 (ends and bridges not checked) [AFP-6 analog SEQ ID NO: 19]

EC50, cAMP (AlphaScreen), CHO cells, Average [5]: 1740 nM | EC50, cAMP (AlphaScreen), CHO cells, Experiment 2 [5]: 3600 nM | EC50, cAMP (AlphaScreen), CHO cells, Experiment 3 [5]: 622 nM
B1: Human Adrenomedullin (peptide)
peptide: YRQSMNNFQGLRSFGCRFGTCTVQKLAHQIYQFTDKDKDNVAPRSKISPQGY-NH2
modifications: ends and bridges not checked

IC50 [2]: 304 nM | IC50 [3]: 10.5 nM | IC50 [4]: 209 nM
Binder: TQAQLLRVGCVLGTCQVQNLSHRLWQLDSAPVDPSSPHSY-NH2 (ends and bridges not checked) [AFP-6 analog SEQ ID NO: 17]

IC50 [2]: 1000 nM
Binder: GCVLGTCQVQNLSHRLWQLRQESAPVEPSSPHSY-NH2 (ends and bridges not checked) [AFP-6 analog SEQ ID NO: 40]

IC50 [1]: 16 nM | IC50 [2]: 36 nM | IC50 [3]: 25 nM | IC50 [4]: 1.9 nM
Binder: TQAQLLRVGCSNLSTCQVQNLSHRLWQLMGPAGRQDSAPVDPSSPHSY-NH2 (ends and bridges not checked) [AFP-6 analog SEQ ID NO: 20]

IC50 [1]: 17 nM | IC50 [2]: 47 nM | IC50 [3]: 8.5 nM | IC50 [4]: 8.3 nM
Binder: TQAQLLRVGCNTATCQVQNLSHRLWQLMGPAGRQDSAPVDPSSPHSY-NH2 (ends and bridges not checked) [AFP-6 analog SEQ ID NO: 21]

IC50 [2]: 120 nM | IC50 [3]: 80 nM | IC50 [4]: 139 nM
Binder: TQAQLLRVGMVLGTMQVQNLSHRLWQLMGPAGRQDSAPVDPSSPHSY-NH2 [AFP-6 analog SEQ ID NO: 25]

IC50 [1]: 1000 nM | IC50 [2]: 7.1 nM | IC50 [3]: 2.3 nM | IC50 [4]: 16 nM
Binder: TQAQLLRVGCVLGTCQVQNLSHRLWQLMGPAGRQESAPVEPSSPHSY-NH2 (ends and bridges not checked) [AFP-6 analog SEQ ID NO: 32]

IC50 [1]: 17 nM | IC50 [3]: 208 nM | IC50 [4]: 9.9 nM
Binder: GCSNLSTCQVQNLSHRLWQLRQDSAPVEPSSPHSY-NH2 (ends and bridges not checked) [AFP-6 analog SEQ ID NO: 38]

IC50 [1]: 31 nM | IC50 [2]: 1000 nM | IC50 [4]: 14 nM
Binder: GCGNLSTCQVQNLSHRLWQLRQDSAPVEPSSPHSY-NH2 (ends and bridges not checked) [AFP-6 analog SEQ ID NO: 39]

EC50, cAMP (AlphaScreen), CHO cells, Average [5]: 0.097 nM | EC50, cAMP (AlphaScreen), CHO cells, Experiment 1 [5]: 0.077 nM | EC50, cAMP (AlphaScreen), CHO cells, Experiment 3 [5]: 0.075 nM
Binder: CGNLSTCMLGTYTQDFNKFHTFPQTAIGVGAP-NH2 (ends and bridges not checked) [Human Calcitonin]

IC50 [1]: 198 nM | IC50 [2]: 18 nM | IC50 [3]: 2.2 nM | IC50 [4]: 9.8 nM
Binder: CVLGTCQVQNLSHRLWQLMGPAGRQDSAPVDPSSPHSY-NH2 (ends and bridges not checked) [AFP-6 analog SEQ ID NO: 12]

EC50, cAMP (AlphaScreen), CHO cells, Average [5]: 24 nM | EC50, cAMP (AlphaScreen), CHO cells, Experiment 1 [5]: 21.6 nM | EC50, cAMP (AlphaScreen), CHO cells, Experiment 2 [5]: 30.9 nM | EC50, cAMP (AlphaScreen), CHO cells, Experiment 3 [5]: 19.6 nM
Binder: KCNTATCATQRLANFLVRSSNNLGPVLPPTNVGSNTY (peptide, UniProt P12969 38-74, looked up) [rat amylin]

IC50 [2]: 59 nM
Binder: VQNLSHRLWQLMGPAGRQDSAPVDPSSPHSY-NH2 [AFP-6 analog SEQ ID NO: 14]

IC50 [1]: 55 nM | IC50 [2]: 7.1 nM | IC50 [3]: 1.4 nM | IC50 [4]: 5.1 nM
Binder: RVGCVLGTCQVQNLSHRLWQLMGPAGRQDSAPVDPSSPHSY-NH2 (ends and bridges not checked) [AFP-6 analog SEQ ID NO: 10]

IC50 [1]: 51 nM | IC50 [2]: 1000 nM | IC50 [3]: 18 nM | IC50 [4]: 12 nM
Binder: GCNTATCQVQNLSHRLWQLRQDSAPVDPSSPHSY-NH2 (ends and bridges not checked) [AFP-6 analog SEQ ID NO: 31]

IC50 [1]: 128 nM | IC50 [2]: 1000 nM | IC50 [3]: 37 nM | IC50 [4]: 19 nM
Binder: VCNTATCQVQNLSHRLWQLRQDSAPVDPSSPHSY-NH2 (ends and bridges not checked) [AFP-6 analog SEQ ID NO: 30]

IC50 [1]: 121 nM | IC50 [2]: 1000 nM | IC50 [3]: 130 nM | IC50 [4]: 39 nM
Binder: GCNTATCQVQNLSHRLWQLRQDSAPVEPSSPHSY-NH2 (ends and bridges not checked) [AFP-6 analog SEQ ID NO: 37]

IC50 [1]: 27 nM | IC50 [2]: 11 nM | IC50 [3]: 0.93 nM | IC50 [4]: 7.7 nM
Binder: GCVLGTCQVQNLSHRLWQLMGPAGRQDSAPVDPSSPHSY-NH2 (ends and bridges not checked) [AFP-6 analog SEQ ID NO: 11]

IC50 [2]: 37 nM | IC50 [3]: 26 nM | IC50 [4]: 48 nM
Binder: GMVLGTMQVQNLSHRLWQLMGPAGRQDSAPVDPSSPHSY-NH2 [AFP-6 analog SEQ ID NO: 26]

IC50 [6]: 33 to 68 nM | IC50 [4]: 123 nM
B2: r/h Adrenomedullin (peptide)
peptide: YRQSMNNFQGLRSFGCRFGTCTVQKLAHQIYQFTDKDKDNVAPRSKISPQGY
modifications: ends and bridges not checked; cysteine pairing not given here

IC50 [1]: 24 nM | IC50 [2]: 6.4 nM | IC50 [4]: 12 nM
Binder: VGCVLGTCQVQNLSHRLWQLMGPAGRQDSAPVDPSSPHSY-NH2 (not fully specified; ends and bridges not checked) [Human AFP-6 [8-47]]

IC50 [1]: 153 nM | IC50 [2]: 37 nM | IC50 [3]: 4.7 nM | IC50 [4]: 17 nM
Binder: VGCVLGTCQVQNLSHRLWQLMGPAGRQDSAPVEPSSPHSY-NH2 (ends and bridges not checked) [AFP-6 analog SEQ ID NO: 35]

IC50 [1]: 22 nM | IC50 [2]: 1000 nM | IC50 [3]: 1.5 nM | IC50 [4]: 21 nM
Binder: TQAQLLRVGCVLGTCQVQNLSHRLWQLRQDSAPVDPSSPHSY-NH2 (ends and bridges not checked) [AFP-6 analog SEQ ID NO: 16]

IC50 [1]: 24 nM | IC50 [2]: 1000 nM | IC50 [3]: 3.6 nM | IC50 [4]: 18 nM
Binder: VGCVLGTCQVQNLSHRLWQLRQDSAPVDPSSPHSY-NH2 (ends and bridges not checked) [AFP-6 analog SEQ ID NO: 18]

IC50 [2]: 1000 nM
Binder: VGMVLGTMQVQNLSHRLWQLRQDSAPVDPSSPHSY-NH2 [AFP-6 analog SEQ ID NO: 27]

IC50 [1]: 198 nM | IC50 [2]: 1000 nM | IC50 [3]: 14 nM | IC50 [4]: 39 nM
Binder: VGCVLGTCQVQNLSHRLWQLRQDSAPVEPSSPHSY-NH2 (ends and bridges not checked) [AFP-6 analog SEQ ID NO: 36]
